{"source": "patent US7217525", "about": "(Johns Hopkins, dated 2007)", "binders": {"B1": {"name": "C-terminal myc-tagged version of Narp (designated myc-Narp) (ligand, not shown: small tags and cut ends)", "chain": "AGQAQDNPIPGSRFVCTALPPEAARAGCPLPAMPMQGGALSPEEELRAAVLHWRETVVQQKETLGAQREAIRELTSKLARCEGLAGGKARGTGATGKDTMGDLPRDPGHVVEQLSRSLQTLKDRLESLELQLHTNASNAGLPSDFREVLQRRLGELERQLLRKVAELEDEKSLLHNETSAHRQKTENTLNALLQRVTELERGNSAFKSPDAFKVSLPLRTNYLYGKIKKTLPELYAFTICLWLRSSASPGIGTPFSYAVPGQANEIVLIEWGNNPIELLINDKVAQLPLFVSDGKWHHICITWTTRDGMWEAFQDGEKLGTGENLAPWHPIKPGGVLILGQEQDTVGGRFDATQAFVGELSQFNIWDRVLRAQEIINIANCSTNMPGNIIPWVDNNVDVFGGASKWPVETCEERLLDL"}}, "target": "T1, Narp (recombinant, expressed in transfected HEK-293 cells) (Rattus norvegicus (Rat), UniProt P97738 15-432)", "T1 sequence": "B1 chain", "test": "cell-based or functional assay", "data": [{"binder": "B1", "values": [{"measurement": "increase in intercellular myc-Narp*GluR1 co-clusters when untagged Narp is co-expressed with GluR1 in the apposing 293 cell", "value": 2, "unit": "fold"}]}]}
